Numbering of substitutions follows the chain as printed.
B1: antibody 2706 (antibody, V domains shown)
VH: QVQLVQSGAEVKKPGSSVKVSCKASGGTFSTYAISWVRQAPGQGLEWMGGIIPLFATANYAQNFQGRVTITADKSTSTAYMELSSLRSEDTAVYYCASVRLHLEELSLSHQGDYYYGLDVWGQGTTVTVSS
VL: DIQMTQSPSSLSASVADRVTITCQASQDISHYLNWYQQKPGKAPQLLIYDASKLETGAPSRFSGSGSGTDFTFTISSLQPEDIATYYCQQYDHLPLTFGGGSKVEIK
B2: antibody 4441 (antibody, V domains shown)
VH: EVQLVESGGGLVQPGRSLRLSCAASGLTFEDYAMHWVRQPPGKGLEWVSGVSWNSGTIGYADSVKGRFTISRDNAKNSLYLHMRSLGAEDTAMYYCAKDMGGRFSFFSLENDAFDIWGQGTMVIVSS
VL: SYELTQPPSVSVSPGQTARITCSGDALPKQSTYWYQQKPGQAPVLVIYKDIERPSGIPERFSGSSSGTTVTLTISGVQAEDEADYYCQSADSSDTYVFGTGTKVTVL
B3: antibody 1823 (antibody, V domains shown)
VH: EVQLVESGGGLVKPGGSLRLSCVASGFSFGLYTMNWVRQAPGKGLEWVSYISSSTSYKYYADSVKGRVSVSRDNAKNSLYLQLNGLRVEDTAVYYCARDGYCPNGICTYYGMDVWGQGTTVTVSA
VL: EIVMTQSPATLSVSPGERATLSCRASQSVSSNLAWYQQKPGQAPRLLIYGASTRATGIPARFSGSGSGTEFTLTITGLQSEDFAVYYCQQYDKWPPAYSFGQGTKVEIK
B4: antibody 1872 (antibody, V domains shown)
VH: B3 VH with V23A, G30S, T55S, K58R, V68F, S78A, L83M, V88A, N104R, I106V
VL: EIVMTQSPATLSVSPGERATLSCRASQSVGSRLAWYQQKPGQAPRLLIYDATIRATGIPARFSGSGSGTDFTLTISGLQSEDFAVYYCQRYNNWPPAYTFGQGTKLEIK
B5: antibody 1871 (antibody, V domains shown)
VH: B3 VH with G30S, L31I, T33S, T55S, V68F, V88A, N104K, I106V
VL: B4 VL with A19V, G30R, Y36F, T52S, D70E, T74I, G77S, R90Q, N92D
B6: antibody 1859 (antibody, V domains shown)
VH: EVQLVESGGGLVKPGGSLRLSCAASGFSFNTYTMNWVRQAPGKGLEWVSYISSSSSYKYYSDSVKGRFSVSRDNAKKSLYLQMNGLRAEDTAVYYCARDGYCPNGVCTYYGMDVWGQGTTVTVSL
VL: B3 VL with T76S, Y87F, D92S, S99T, V106L
B7: antibody 1814 (antibody, V domains shown)
VH: QVQLQESGPGLVKPSETLSLTCSVSGGSINYYYWSWIRQTPGQGLEWIGFIYSSGTTNYNPSLKSRVTMSKDTAKKQFSLKLTSVTAADSAVYYCARHSRSCTNGVCQTYYYYALDVWGHGTTVTVSS
VL: QSVLTQPPSVSGAPGQRVTISCTGSGSNIGSGYDVHWYQQLPGRAPKLLIYRNRNRPSGVPDRFSGSKSGTSASLAIAGLQSEDEGDYFCQSYDGRLGESAVFGGGTRLTVL
B8: antibody 1815 (antibody, V domains shown)
VH: B7 VH with Q39K, T40S, Q43K, T68S, K71I, D72G, A74S, K76R, T83S
VL: QSVLTQPPSVSGAPGQRVTISCTGSSSNIGAGYDVHWYQQLPGTAPKLLIYANTHRPSGVPDRFSASKSGTSASLAIAGLQAEDEGDYYCQSYDGSLSESAVFGGGTRLTVL
B9: antibody 1826 (antibody, V domains shown)
VH: QVQLQESGPGLVKPSETLSLTCSVTGGSTNYYYWSWIRQPPGKGLEWIGYIYYSGTTNYNPSLKDRVTMSVDKSKTQLSLKLNSVTAADTAVYYCARHARHCTNGVCQTYYYYGLDVWGLGTTVAVSA
VL: QSVLTQPPSVSAAPGQRVTISCSGSSSNIGAGYDVHWYQHLPGTAPKLLIYNNNNRPSGVPDRFSASRSGTSASLAITGVQTEDEADYYCQSFDGRLSESGVFGGGTKLTVL
B10: antibody 1915 (antibody, V domains shown)
VH: QVQLVESGGGVVQPGRSLRLSCAASGFTFSSYAMHWVRQAPGKGLEWVAVISYDGSNKYYADSVKGRFTISRDNSKNTLYLQMDSLRAQDTAVYYCATPRDMFSSGWSSPFDYWGQGTLVTVSS
VL: DIQMTQSPSSLSASVGDRVTITCQASQDISIYLTWYQQKPGKAPKLLIYGASNLEVEVPSRFSGSGSGTEFTLTISSLQPEDFATYFCQHSDDLPVTFGGGTKVEVK
B11: antibody 1963 (antibody, V domains shown)
VH: QVQLVQSGAEVKKPGASVKVSCKASGYTFTSNYIHWLRQAPGQGLEWMGIIKPSGTSTISAQKFRGRVAMTRDTSTSTVYMELSSLRFEDTAIYYCARDAKRALETWGQGTMVTVSS
VL: QSVLTQPPSVSAAPGQKVTISCSGSSSNIGNNYVSWYQQLPGTAPKLLIYDNNKRPSGIPDRFSGSRSGTSATLGITGLQTGDEADYYCGTWDSSLSAWVFGGGTKLTVL
B12: antibody 1969 (antibody, V domains shown)
VH: QVQLVQSGAEVKKPGASVKVSCKASGYSFTDYYIHWVRQAPGQGLEWMGIIKPSAGATVYAQKFRGRVSMTSDTSTGTVYMELSGLKSEDTAVYYCARDYNRSFDFWGQGTLVTVSS
VL: QSVLTQPPSVSAAPGQTVTISCAGSTSNIGKNYVSWYQHLPGTAPKLLIYDNIKRPSGIPDRFSGSTSGTSATLGITELQTGDEADYYCGTWDSSLSAYVFGTGTKVTVL
B13: antibody 1959 (antibody, V domains shown)
VH: QVQLVQSGTEVKKPGSSVRVSCQASGDTFTSHAIIWIRQAPGQGLEYLGRIIPVLDITNAAQRFLGRLTLTADKSTTTAYMELSSLRSEDTAVYYCARAPFGLIVMYDHWGQGTLVTVTA
VL: EIVLTQSPGTLSLSPGERATLSCRASQSVSGNFLAWYQQKPGQAPRLLIHETSKRATGIPDRVSGGGSGTDFTLTISRLEPEDFAVYHCQQYGTTAVTFGQGTRLDMK
B14: antibody 1867 (antibody, V domains shown)
VH: B6 VH with N30S, K58R, S61A, K65R, K77N, A88V, L125S
VL: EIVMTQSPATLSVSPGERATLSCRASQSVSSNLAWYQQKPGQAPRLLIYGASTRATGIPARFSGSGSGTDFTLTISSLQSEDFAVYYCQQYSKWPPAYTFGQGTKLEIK
B15: antibody 1888 (antibody, V domains shown)
VH: B3 VH with V23A, S28T, G30S, L31S, T33S, T55S, V68F, N104K, I106V
VL: B4 VL with G30R, Y36F, A43P, T52S, A60D, D70E, T74I, R90Q, N92D
B16: antibody 1856 (antibody, V domains shown)
VH: B6 VH with Q3R, N30S, T31L, K58R, S61A, K77N, S78T, Q82E, N104R, L125A
VL: B4 VL with S28T, V29I, S31I, A97V, I108M
B17: antibody 1864 (antibody, V domains shown)
VH: B7 VH with S23T, T40P, Q43K, K71V, T73S, A74S, K76S, T83S
VL: B8 VL with A52G, T54S, H55N, A82P, A101G
B18: antibody 1870 (antibody, V domains shown)
VH: B7 VH with T40P, Q43K, K71V, A74S, K76N, T83S
VL: B8 VL with A52G, T54S, H55N, A101G
B19: antibody 1851 (antibody, V domains shown)
VH: B7 VH with S23T, T40S, Q43K, K71V, T73S, A74S, K76S, T83S
VL: B8 VL with A52G, T54S, H55N, A82P, A101G

biological target: T1, Receptor-binding domain (RBD) of the SARS-CoV-2 spike protein, WA01/2020 strain (SARS-CoV-2, WA01/2020 strain, UniProt P0DTC2 319-541); experiment: SPR (Biacore 8K), antigen immobilized, antibody injected

Row | Binder | Kd
1 | B1 | 0.029 nM
2 | B2 | 0.022 nM

biological target: T1, Receptor-binding domain (RBD) of the …; experiment: ELISA, antibody blocks RBD binding to human ACE2

Row | Binder | IC50
3 | B1 | 0.51 nM
4 | B2 | 1.02 nM

biological target: T2, SARS-CoV-2 spike protein on live virus, strain USA-WA1/2020 (SARS-CoV-2, WA01/2020 strain, UniProt P0DTC2 14-1273); experiment: cell-based or functional assay

Row | Binder | Live Neut, WA1/2020 IC50 (pM)
5 | B1 | 171 pM
6 | B2 | 85 pM

biological target: T2, SARS-CoV-2 spike protein on live virus, …; experiment: cell-based or functional assay; remark: another data set of the same source

Row | Binder | IC50, live virus micro-neutralization WA1/2020
7 | B2 | 0.058 nM

biological target: SARS-CoV-2 spike protein, B1.1.7 (alpha variant), borne on lentiviral pseudovirus (SARS-CoV-2, B1.1.7); experiment: cell-based or functional assay

Row | Binder | Pseudo Neut, B1.1.7 IC50 (pM)
8 | B1 | 13 pM
9 | B2 | ~13 pM
10 | B3 | 850 pM
11 | B4 | 130 pM
12 | B5 | 110 pM
13 | B6 | 230 pM
14 | B7 | 237 pM

biological target: SARS-CoV-2 spike protein, B1.351 (beta variant), borne on lentiviral pseudovirus (SARS-CoV-2, B1.351); experiment: cell-based or functional assay

Row | Binder | Pseudo Neut, B1.351 IC50 (pM)
15 | B1 | > 18000 pM
16 | B2 | 2320 pM
17 | B3 | 133 pM
18 | B4 | 75 pM
19 | B5 | 208 pM
20 | B6 | 73 pM
21 | B7 | 32 pM
22 | B8 | 345 pM

biological target: T1, Receptor-binding domain (RBD) of the …; experiment: ELISA screening, antibody concentration not given

Row | Binder | binding result
23 | B9 | no binding (tested: not printed)
24 | B10 | no binding (tested: not printed)
25 | B11 | no binding (tested: not printed)
26 | B12 | no binding (tested: not printed)
27 | B13 | no binding (tested: not printed)
28 | B14 | no binding (tested: not printed)
29 | B4 | no binding (tested: not printed)
30 | B5 | no binding (tested: not printed)
31 | B6 | no binding (tested: not printed)
32 | B15 | no binding (tested: not printed)
33 | B16 | no binding (tested: not printed)
34 | B7 | no binding (tested: not printed)
35 | B17 | no binding (tested: not printed)
36 | B8 | no binding (tested: not printed)
37 | B18 | no binding (tested: not printed)
38 | B19 | no binding (tested: not printed)

biological target: T1, Receptor-binding domain (RBD) of the …; experiment: dose-response ELISA on coated antigen

Row | Binder | EC50
39 | B1 | 0.017 nM
40 | B2 | 0.05 nM

From US20230382979A1 (ADAPTIVE BIOTECHNOLOGIES, published 2023)
